± gives the half width of the 95% confidence interval.
What was measured:
[1] = folding stability dG unfold from trypsin proteolysis; higher = more stable
In short: (§1)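 K50 was inferred by Bayesian fitting of sequencing counts obtained after protease digestion of designed mini-proteins. Unfolding free energy was derived by comparison with a sequence-predicted unfolded-state K50 and a shared folded-state K50, for each protease or both combined. The mini-proteins were under 80 residues, had no cysteine, were carried in a PA-tagged cDNA display construct, and were kept only if AlphaFold2 dimer inter-PAE exceeded 15.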

[2] = folding stability dG unfold (combined trypsin and chymotrypsin); higher = more stable
In short: as §1

[3] = folding stability dG unfold from chymotrypsin proteolysis; higher = more stable
In short: as §1

| Sequence | folding stability dG unfold [1] | folding stability dG unfold [2] | folding stability dG unfold [3] |
| --- | --- | --- | --- |
| SMVEVLPDGTVVLAGELPPNVSIEEFLNSLPGLEIASVEFEPDPETGVTHFVFVVTPDGRVYVGSVPLGKSA [r9_238_TrMRF] | 1.25 ± 0.04 kcal/mol | 2.25 ± 0.056 kcal/mol | 2.63 ± 0.041 kcal/mol |
| SPPNFRMEQEEIEIEIRFPDGWRVSVEIEIHRMRFPDGDEMLHIDIKVEADPNNPGMRKLAKNLVEEIINSA [r9_908_TrROS] | 1.24 ± 0.21 kcal/mol | 1.85 ± 0.41 kcal/mol | 2.14 ± 0.21 kcal/mol |
| SAGGSAIPFPPGAKVKKIEMHEKKDDNKPRYVMIIKWEGGNIMVFQMDPGDGNFKPIGWVPLDDLKSAGGSA [r15_777_TrROS] | 0.508 ± 0.07 kcal/mol | 1.95 ± 0.12 kcal/mol | 2.33 ± 0.058 kcal/mol |
| SAGMEYLEVKVTIEPKLPEELREKLKGKKVTVTIIVPKEMSEEEKKKLLEELRDLGVKKVEIKSLEELKSAG [r5_60_TrROS_Hall] | 1.65 ± 0.085 kcal/mol | 1.89 ± 0.11 kcal/mol | 1.93 ± 0.077 kcal/mol |
| GLAPRVYEVDALVTDENGVPRLYRVLVVETPLPDGTYRAVAFARDLDTTETRVLTLVSDRAVIGPDVPLTAS [r1_14_TrMRF] | 2.07 ± 0.044 kcal/mol | 2.21 ± 0.15 kcal/mol | 2.24 ± 0.12 kcal/mol |
| SFLSPGDKFKFPNGNNYRIENFDISYDPGNNNPMIEIELVPLPPPKPEDENKKDPDGKTKTENKYKYKGPSA [r9_914_TrROS] | 0.61 ± 0.28 kcal/mol | 0.968 ± 0.45 kcal/mol | 0.879 ± 0.5 kcal/mol |
| SMTVSATAVPFGDRLVVTVTVTVDPTLFPDRPPGPAVWERVARELARELGIDSVTLAPLPDDTFVALFDDSA [r9_883_TrMRF] | 2.41 ± 0.069 kcal/mol | 2.48 ± 0.084 kcal/mol | 2.46 ± 0.04 kcal/mol |
| SAGGSAGGSAGGGSMPLLTETRKSLVVDPETGRLREVTTTTIRFPDRNTSQVTTTVTPVSSAGGSAGGSAGG [r7_196_JUSTAS] | 0.771 ± 0.063 kcal/mol | 0.41 ± 0.14 kcal/mol | 0.139 ± 0.081 kcal/mol |
| SAGGSAGMVSLTTTTTPVETRTLPDGTVVTLEKTELPDDTVVLTTTTTDPATGEVTTETTTVSLAGSAGGSA [r15_401_JUSTAS] | 0.409 ± 0.026 kcal/mol | 0.884 ± 0.11 kcal/mol | 1.11 ± 0.022 kcal/mol |
| SAGGMKFKIVKIEVKEDKVTIEIEAETEEELEEAKKLAEELAKKLGLSKEKIEVKIELRPPPEEEEEESAGG [r13_430_TrROS_Hall] | 2.43 ± 0.23 kcal/mol | 2.55 ± 0.52 kcal/mol | 2.19 ± 0.15 kcal/mol |
| SAGGIWIKVPDGGWVRIQIEHPGNGRPREETIPGGDIKDLIKSLSSSPDFPNYKVKIEVWDGGKPKPISAGG [r13_914_TrROS] | 0.923 ± 0.03 kcal/mol | 1.46 ± 0.14 kcal/mol | 1.71 ± 0.058 kcal/mol |
| SAGGSAGGSNDPPEIKIDYEYNPNNGMYTANITIPNGRKLKITFPGDDAEDAEEQAKNLIEKLSAGGSAGGS [r12_339_TrROS] | 0.539 ± 0.089 kcal/mol | 1.28 ± 0.38 kcal/mol | 1.57 ± 0.091 kcal/mol |
| SAGGKKKPKVKTITITLPKKDIKIGDVITAEEIAKLLGLPKNAKIKVVEVKYDKETGEVTIKIEIYESAGGS [r16_165_TrROS_Hall] | 1.98 ± 0.045 kcal/mol | 2.96 ± 0.11 kcal/mol | 3.29 ± 0.1 kcal/mol |
| SAGKEKKPPKKVTLTLEIEIEVPEEEEEKAKELAEELEEELRKLGIEKVEVEYDKETKRVRIRVTVVLPSAG [r5_512_TrROS_Hall] | 2.22 ± 0.086 kcal/mol | 2.74 ± 0.36 kcal/mol | 3.01 ± 0.094 kcal/mol |
| SAGGSAGGSAGGSEKKITVYKDKNGNYLVVIEKGDKPIVIPFPKGASLKEALDIIDKLDSAGGSAGGSAGGS [r4_7_TrMRF] | 1.95 ± 0.095 kcal/mol | 2.41 ± 0.14 kcal/mol | 2.64 ± 0.051 kcal/mol |
| SAGEDGWHVVKIWIMIPGPAQLDEFLEEHPNVEIWPNPNGYFMVRITIRVPVPPPPPERDPDNGEPEPDSAG [r5_129_TrROS] | 3.73 ± 0.11 kcal/mol | 4.29 ± 0.1 kcal/mol | 4.66 ± 0.064 kcal/mol |

| Sequence | folding stability dG unfold [1] | folding stability dG unfold [2] | folding stability dG unfold [3] |
| --- | --- | --- | --- |
| SAGGSAGGSAGKIIEELKKKGYKVEVIKDKKTKKYYVKITVTDKKGNKKTITIPLKDIKPSAGGSAGGSAGG [r17_311_TrROS_Hall] | 2.8 ± 0.23 kcal/mol | 3.71 ± 0.35 kcal/mol | 4 ± 0.21 kcal/mol |
| SAGGMKYLIKIEVDGKEIEIEAESLEEAEELAKKLEEEGIEIEVKKIEIYELPEEEEEEEEEKKKKESAGGS [r8_336_TrROS_Hall] | 0.249 ± 0.11 kcal/mol | 1.85 ± 0.21 kcal/mol | 2.24 ± 0.08 kcal/mol |
| SAGGSAGGSSVTLTFTGGNSEVTVELDAGGEGGFLARVTVVTESDGKLETVEADFYLGSLPGLSAGGSAGGS [r12_769_TrMRF] | 2.75 ± 0.13 kcal/mol | 3.29 ± 0.13 kcal/mol | 3.77 ± 0.065 kcal/mol |
| SAGGSAGGSAGMLRVRAVIKRPGGELEELTDVTEEEVLAYAREKGWEIEELKVISPSEKPSAGGSAGGSAGG [r11_283_JUSTAS] | 1.23 ± 0.054 kcal/mol | 1.64 ± 0.13 kcal/mol | 1.91 ± 0.12 kcal/mol |
| SAGGGALSPEEALGKPVTALVEVGGKPYLATYTLKPTPDGWLLEVTVYDPSTGTPTTRTLDWDDVEFESAGG [r13_289_TrMRF] | 1.09 ± 0.025 kcal/mol | 1.87 ± 0.04 kcal/mol | 2.232 ± 0.022 kcal/mol |
| SAGGSAFKIKIPEDLRGAPPGGKIEIEFPNGVRAEIEYKDGEWVIEVKHYGPNGKPVEEHEFRIKVSAGGSA [r15_558_TrROS] | 1.47 ± 0.046 kcal/mol | 1.28 ± 0.22 kcal/mol | 0.94 ± 0.18 kcal/mol |
| SAGGMVKLTITITTENETTTYPRVVPEEELEEVKKEAEELAKKLGADPKTVTVSKVERLKEPGGVPVSAGGS [r16_650_JUSTAS] | 0.694 ± 0.029 kcal/mol | 0.856 ± 0.061 kcal/mol | 0.901 ± 0.033 kcal/mol |
| SAGGSMFKVEEVETLENGEVLAKLTVYLDGKPYPATARIYTLPDGRKVAEIYFPDNPNVSLRIPLTSAGGSA [r2_376_TrMRF] | 3.91 ± 0.059 kcal/mol | 4.1 ± 0.053 kcal/mol | 4.14 ± 0.024 kcal/mol |
| SAGGSAGGSAKTIKVLVRDKETGEVFEVEAEIVEFDEETGELLIKVRLPNGKTLTLSAEELLSAGGSAGGSA [r18_334_TrROS_Hall] | 2.54 ± 0.098 kcal/mol | 3.71 ± 0.21 kcal/mol | 4.12 ± 0.1 kcal/mol |
| SAGGSAGGSAGVSPNEDVKVEVLEVKPDPETGTYTVLVKDPRTGEERTLTLTPEELAKLLSAGGSAGGSAGG [r11_894_JUSTAS] | 4.42 ± 0.19 kcal/mol | 4.56 ± 0.079 kcal/mol | 4.53 ± 0.073 kcal/mol |
| SVRIHGPDGQWFPVDDIEFDPNNNKFTFKFPGGKHKFPLPPGWQIEIDKDNAWIRVRPMPPPPPEDKEAKSA [r9_551_TrROS] | 2.88 ± 0.24 kcal/mol | 2.68 ± 0.34 kcal/mol | 2.25 ± 0.061 kcal/mol |
| SAPDAKVEFNPKLVRKGDELLLLVEVKLSPDVDEVVVEIEVTGPDGSPFKVEAVQFPETGTVLVKAVLPASA [r9_159_TrMRF] | 1.33 ± 0.078 kcal/mol | 1.75 ± 0.094 kcal/mol | 2.04 ± 0.061 kcal/mol |
| SAGGSAGGSAGGKKTVKIEIEMPVEELLKKLKFPEGITSVRIIERDENGYLRIEIEVKLSAGGSAGGSAGGS [r10_352_TrROS_Hall] | 1.55 ± 0.05 kcal/mol | 1.31 ± 0.23 kcal/mol | 1.32 ± 0.078 kcal/mol |
| SAGGSAGGSSEKAEELLERLRELLPPEEIRRVEVRDGKIVIEVSPEAARRLAEELGLDEIEIVSAGGSAGGS [r12_748_TrROS_Hall] | 2.53 ± 0.09 kcal/mol | 2.49 ± 0.074 kcal/mol | 2.22 ± 0.071 kcal/mol |
| SAGGSAGGSAGGMTVTLKAPDGKWLTVPVDPEDPKAVKEAVEELAAKGHPVVEVSTDEKSAGGSAGGSAGGS [r10_231_JUSTAS] | 0.555 ± 0.025 kcal/mol | 0.355 ± 0.059 kcal/mol | 0.0542 ± 0.097 kcal/mol |
